Results: patent EP4293046A1 (Shanghai Jemincare Pharmaceuticals Co., Ltd., dated 2023)

What was measured:
[1] = target: biotin-labeled human PD-1 (Acro, Catalog Number: PD1-H82E4) (human) (UniProt Q15116); assay: flow cytometry, yeast-displayed Fab, titration of soluble PD-1
[2] = target: biotin-labeled monkey PD-1 (Acro, Catalog Number: PD1-C82E6) (monkey (cyno)) (UniProt B0LAJ3); assay: as above
[3] = target: T1, human PD-1 (Sino Biological, Catalog Number: 10377-H08H) (human, UniProt Q15116 25-167); assay: BLI, Octet RED96e
T1 construct: Bought protein

[4] = target: T1, human PD-1 (Sino Biological, Catalog …); assay: BLI, Octet RED96e, antibody on AHC sensor, PD-1 100 nM
[5] = target: T2, human PD-1 (Acro, Catalog Number: PD-1-H5221) (human, UniProt Q15116 25-167); assay: as above
T2 construct: Bought protein

[6] = target: T3, monkey PD-1 (Acro, Catalog Number: PD-1-C5223) (monkey, UniProt B0LAJ3 25-170); assay: as above
T3 construct: Bought protein; not shown: any purification tag of the vendor's construct (Acro PD-1-C5223)

[7] = target: T2, human PD-1 (Acro, Catalog Number: …); assay: BLI, Octet RED96e
[8] = target: T3, monkey PD-1 (Acro, Catalog Number: …); assay: BLI, Octet RED96e

T3 sequence (B0LAJ3 entry or part of it limits assumed, form in doubt): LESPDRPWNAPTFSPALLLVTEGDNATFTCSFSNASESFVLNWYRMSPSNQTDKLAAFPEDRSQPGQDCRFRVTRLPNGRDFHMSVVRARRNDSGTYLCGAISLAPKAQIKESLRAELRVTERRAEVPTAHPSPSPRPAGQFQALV
T2 sequence (Q15116 25-167 limits assumed): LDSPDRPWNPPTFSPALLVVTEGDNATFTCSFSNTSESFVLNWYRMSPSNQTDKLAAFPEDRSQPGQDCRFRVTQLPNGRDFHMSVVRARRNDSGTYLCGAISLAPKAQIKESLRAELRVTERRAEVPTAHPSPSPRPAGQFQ
T1 sequence (Q15116 25-167 limits assumed): as above
Sequence of biotin-labeled monkey PD-1 (Acro, Catalog Number: PD1-C82E6) (monkey (cyno)) (B0LAJ3 entry or part of it limits assumed): as the sequence (B0LAJ3 entry or part of it limits assumed, form in doubt) above
Sequence of biotin-labeled human PD-1 (Acro, Catalog Number: PD1-H82E4) (human) (Q15116 25-167 limits assumed): as the sequence (Q15116 25-167 limits assumed) above

Ag50 [1] [nM] | Ag50 [2] [nM] | fold higher affinity than Pembrolizumab [3] [times] | Kd [4] [nM] | koff [4] [s⁻¹] | kon [4] [M⁻¹ s⁻¹] | Kd [5] [nM] | koff [5] [s⁻¹] | kon [5] [M⁻¹ s⁻¹] | Kd [6] [nM] | koff [6] [s⁻¹] | kon [6] [M⁻¹ s⁻¹] | fold affinity against the parent antibody [7] [times] | fold affinity against the parent antibody [8] [times] | Binder
5.08 | 36.1 | – | – | – | – | – | – | – | – | – | – | – | – | 41D2HzL4H3 parent sequence displayed on the yeast surface in the form of Fab (Fab, V domains shown) VH: EVQLVESGGGLVKPGGSLRLSCAASGFTFSNYDMSWVRQAPGKGLEWVSTISGGGSYTYYADSVKGRFTISRDNAKNSLYLQMNSLRAEDTAVYYCVSPYYGMEYWGQGTLVTVSS VL: DIQLTQSPSFLSASVGDRVTITCKASQDVGTAVAWYQQKPGKAPKLLIYWASTRHTGVPSRFSGSGSGTEFTLTISSLQPEDFATYFCQQYSSYPWTFGGGTKVEIK
– | – | 4.2 | 1.92 | 0.000542 | 283000 | 1.27 | 0.000589 | 464000 | 5.2 | 0.00153 | 295000 | – | – | 41D2HzL4H3 (antibody, V domains shown, Humanized antibody; the description mentions human IgG4 S228P and kappa; also called parent antibody; humanized antibody of 41D2-2C3D7) VH: EVQLVESGGGLVKPGGSLRLSCAASGFTFSNYDMSWVRQAPGKGLEWVSTISGGGSYTYYADSVKGRFTISRDNAKNSLYLQMNSLRAEDTAVYYCVSPYYGMEYWGQGTLVTVSS VL: DIQLTQSPSFLSASVGDRVTITCKASQDVGTAVAWYQQKPGKAPKLLIYWASTRHTGVPSRFSGSGSGTEFTLTISSLQPEDFATYFCQQYSSYPWTFGGGTKVEIK
1.26 | 2.42 | – | – | – | – | 0.504 | 0.00023 | 457000 | 1.52 | 0.000486 | 320000 | ~2 | ~2 | Ab2005Am08 (antibody, V domains shown, also called clone YC215H3 as IgG) VH: EVQLVESGGGLVKPGGSLRLSCAASGFTFSNYDMSWVRQAPGKGLEWVSTISGGGRYTYYADSVKGRFTISRDNAKNSLYLQMNSLRAEDTAVYYCVSPYYGMEYWGQGTLVTVSS VL: DIQLTQSPSFLSASVGDRVTITCKASQDVGTAVAWYQQKPGKAPKLLIYWASTRHTGVPSRFSGSGSGTEFTLTISSLQPEDFATYFCQQYSSYPWTFGGGTKVEIK
– | – | – | 8.04 | 0.00118 | 147000 | – | – | – | – | – | – | – | – | 1910h3hzL3H4 (antibody, V domains shown, Humanized antibody; the description mentions human IgG4 S228P and kappa; also called humanized antibody of 46H3A8; 1910h3hzL3 light chain + 1910h3hzH4 heavy chain) VH: QVQLVQSGAEVKKPGASVKVSCKASGFTFIDYEMHWVRQAPGQGLEWIGGIHPGSGGTAYNQKFKGRATLTADISISTAYMELSRLRSDDTAVYYCTREGFDVGWYFDVWGQGTTVTVSS VL: DVVMTQSPLSLPVTLGQPASISCRSSQSIVHSDGDTFLEWYQQRPGQSPRLLIYKVSNRFSGVPDRFSGSGSGTDFTLKISRVEAEDVGVYYCFQGSHVPYTFGQGTKLEIK
